From the supplement of paper PMC10567573 come the findings set out here.

± gives the standard deviation.

A short description of the series: protein stability index of a GFP-peptide fusion (GPS, HEK-293T) (PSI 1-6); higher = more stable. The following applies: c terminus: a fixed tail appended.
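Note: 24-mer peptide tiles fused after GFP, lentivirally expressed, FACS-sorted into six equal bins by GFP/DsRed ratio, decoded by Illumina sequencing, PSI is the read-weighted mean bin number.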

For HPTPFLAFLRRVKTCNPPDAGPMV [PTPRD], the protein stability index reads like this: (treatment: DMSO) 2.37 ± 0.12; (treatment: MLN4924 1 uM, 8 h) 2.26 ± 0.18.
HQADLEVANRHGHTCLMISCYKGH [FEM1A] had a protein stability index (treatment: DMSO) of 2.73 ± 0.33 and a protein stability index (treatment: MLN4924 1 uM, 8 h) of 2.69 ± 0.45.
Taken in the same sequence, the figures for HQMGVVHRDLKPENLLLASKLKGA [CAMK2A] were 3.73 ± 0.21 and 3.82 ± 0.12.
As for HQPKGLEEENAQLRGALQQGEAFQ [PBXIP1], the protein stability index by setting is: (treatment: DMSO) 5.07 ± 0.24; (treatment: MLN4924 1 uM, 8 h) 5.05 ± 0.12.
Taken in the same sequence, the figures for HQVTVNESLLAPLNVELDPEIQKV [KRT71] were 4.73 ± 0.2 and 4.45 ± 0.15.
For the sequence HRRIHTGEKPYECQDCGRAFNQNS [ZNF8], the protein stability index by setting is: (treatment: DMSO) 3.75 ± 0.53; (treatment: MLN4924 1 uM, 8 h) 4.1 ± 0.27.
The like results for HSDPEESFARDLPDFPSINMDPAG [RETREG3] were, in that order, 5.19 ± 0.25 and 5.22 ± 0.16.
The like results for HSVLVDDDGIKVVKVTFNKQDSLV [TMEM106C] were, in that order, 3.09 ± 0.27 and 3.18 ± 0.36.
The like results for HTDMTNKQNKTPLDKSTTGVSEIL [FEM1B] were, in that order, 4.85 ± 0.49 and 5.05 ± 0.25.
For HTEASAQRSHMGKLKEPQPQDHKP, the protein stability index (treatment: DMSO) is 5.24 ± 0.71 and the protein stability index (treatment: MLN4924 1 uM, 8 h) was 5.24 ± 0.33.
The like results for HTGLKPYECGVCAKKFMWRDSFMR [ZBTB22] were, in that order, 2.65 ± 0.52 and 2.44 ± 0.6.
With HVAGEQMLEDGPHNANRGQRLLAF [CCDC70], the protein stability index runs as follows: (treatment: DMSO) 4.07 ± 0.25; (treatment: MLN4924 1 uM, 8 h) 4.04 ± 0.24.
Taken in the same sequence, the figures for HVEVARLLLENGAGINTHSNEFKE [ANKRD17] were 3.69 ± 0.39 and 3.39 ± 0.22.
Taken in the same sequence, the figures for HVKEQLPCAGLNCQALDANLDANL [TLE6] were 4.42 ± 0.19 and 4.64 ± 0.24.
Taken in the same sequence, the figures for IAAAVYIMDTVGNIWVCYASYVVF [SLC19A2] were 2.89 ± 0.13 and 2.87 ± 0.27.
As for IASEWFLIANRSYKVSAASSFFFS [SLC22A15], the protein stability index runs as follows: (treatment: DMSO) 3.03 ± 0.19; (treatment: MLN4924 1 uM, 8 h) 2.94 ± 0.42.
Taken in the same sequence, the figures for IAVAWIYGTKKFMQELTEMLGFRP [SLC6A17] were 2.62 ± 0.78 and 2.1 ± 0.61.
Turning to ICKSDAPTGDVLLDEALKHVKETQ [GOLPH3], the protein stability index runs as follows: (treatment: DMSO) 4.64 ± 0.3; (treatment: MLN4924 1 uM, 8 h) 4.72 ± 0.16.
Taken in the same sequence, the figures for IEREHLIQLRRWQETRGELQCRSP [TBC1D10A] were 3.88 ± 0.2 and 3.82 ± 0.24.
For the sequence IFPRLSFKDKSTYIESSTKVYDDM [CLPTM1], the protein stability index (treatment: DMSO) was 3.03 ± 0.23 and the protein stability index (treatment: MLN4924 1 uM, 8 h) stood at 3.15 ± 0.25.
IFSQSSALILHQRIHSGKKPYACD [ZNF396]: the protein stability index is, setting by setting: (treatment: DMSO) 2.32 ± 0.097; (treatment: MLN4924 1 uM, 8 h) 2.53 ± 0.24.
As to IGDVHLAPFTDEQLYMEQFTKANF [CARM1], the protein stability index (treatment: DMSO) is 3 ± 0.2 and the protein stability index (treatment: MLN4924 1 uM, 8 h) worked out at 3.03 ± 0.36.
With IGMSAAGMGLTGTMGMGMPNIAMT [CLINT1], the protein stability index runs as follows: (treatment: DMSO) 2.62 ± 0.079; (treatment: MLN4924 1 uM, 8 h) 2.56 ± 0.13.
As for IGSSSEKEIDDVIDEIISLESSYN [TFE3], the protein stability index stood at 4.37 ± 0.25 (treatment: DMSO) and 4.4 ± 0.22 (treatment: MLN4924 1 uM, 8 h).
The like results for IHGENIICEATQIIDYLEQTFLDE [GDAP1] were, in that order, 2.82 ± 0.22 and 3.12 ± 0.21.
The like results for IHPKSIDLDNYFTARRLLSQVRAL [NFE2L1] were, in that order, 2.25 ± 0.32 and 2.54 ± 0.18.
Consider IHQESGKAPSTDDATWAAVAACTK [C10orf62], for which the protein stability index is 4.56 ± 0.18 (treatment: DMSO) and 4.72 ± 0.32 (treatment: MLN4924 1 uM, 8 h).
The like results for IIELLEKDGMAFQEALDPGPFDQG [ELF3] were, in that order, 3.58 ± 0.39 and 3.44 ± 0.32.
Taken in the same sequence, the figures for IIIRSEVPGIFCAGADLKERAKMS [AUH] were 2.36 ± 0.43 and 1.95 ± 0.21.
The like results for ILFLNKKDLFEEKIKKSPLTICYP [GNAI1] were, in that order, 2.43 ± 0.9 and 2.21 ± 0.75.
On to ILFLVIGGMLNFMMHDQRTGPAWN [SOAT2], for which the protein stability index is, setting by setting: (treatment: DMSO) 3.27 ± 0.46; (treatment: MLN4924 1 uM, 8 h) 3.26 ± 0.55.
The like results for ILSGLDDMSIGGNLSKTQNMERFG [CDC14A] were, in that order, 3.24 ± 0.22 and 3.08 ± 0.26.
IMDRFDCQYLMATFVNVYIASFIR [CDS2] gave a protein stability index (treatment: DMSO) of 3.423 ± 0.005 and a protein stability index (treatment: MLN4924 1 uM, 8 h) of 3.33 ± 0.31.
Taken in the same sequence, the figures for INYKLKSVAHLPWRMLTYKALNTF [CLPTM1] were 2.44 ± 0.65 and 2.31 ± 0.36.
The like results for IPDAFWWAVVTMTTVGYGDMKPIT [KCNA4] were, in that order, 3.8 ± 0.42 and 3.53 ± 0.16.
Taken in the same sequence, the figures for IPGEHFWLLLLTRGLVGVGEASYS [SPNS1] were 3.1 ± 0.47 and 2.37 ± 0.58.
In the case of IPPAAMLDQAPKARKYFERLPGGG [DYRK1B], the protein stability index was found to be 3.72 ± 0.27 (treatment: DMSO) and 3.64 ± 0.061 (treatment: MLN4924 1 uM, 8 h).
The like results for IQLGVTPPGYSAWIKEEAAERYLY [SLC6A17] were, in that order, 2.31 ± 0.25 and 2.36 ± 0.15.
In turn, IRQYRLKKISKEEKTPGCVKIKKC [KRAS] yielded a protein stability index (treatment: MLN4924 1 uM, 8 h) of 3.31 ± 0.24.
Consider ISKGEEPRAGKEESGVSVSNSQPT [SLC29A1], for which the protein stability index is, setting by setting: (treatment: DMSO) 5.48 ± 0.24; (treatment: MLN4924 1 uM, 8 h) 5.52 ± 0.22.
ITCVSGAIVDLISRQYDKFLTHFI [FBXO33] came in with a protein stability index (treatment: DMSO) of 2.85 ± 0.53 and a protein stability index (treatment: MLN4924 1 uM, 8 h) of 3.13 ± 0.44.
Taken in the same sequence, the figures for KAAQQGKQEENDVVEKLNLFLDLL [SNX8] were 2.45 ± 0.076 and 2.64 ± 0.34.
Taken in the same sequence, the figures for KAIKARGEVIHCKLRAMKELSEAA [STX11] were 3.32 ± 0.29 and 3.6 ± 0.2.
Taken in the same sequence, the figures for KALFTCPFNGDCRITKDNRRHCQA [VDR] were 2.84 ± 0.31 and 3.21 ± 0.42.
In the case of KAMESQRAYRFVQGKDWGFKKFIR [SPOPL], the protein stability index reads like this: (treatment: DMSO) 2.22 ± 0.38; (treatment: MLN4924 1 uM, 8 h) 2.09 ± 0.21.
The like results for KDKLGVWVYKNKLIFFGGYGYLPE [KLHDC2] were, in that order, 2.25 ± 0.59 and 3.11 ± 1.6.
Taken in the same sequence, the figures for KDLILRFCIDSENRIGNSGVEEIK [STK38L] were 2.472 ± 0.02 and 2.85 ± 0.42.
Taken in the same sequence, the figures for KERALSAPWLSLFPPEGNMEDKEM [ZNF263] were 4.82 ± 0.057 and 4.72 ± 0.18.
In the case of KEYTTRTQAPPSVILGVTNPFFAK [DENND6A], the protein stability index is 2.81 ± 0.24 (treatment: DMSO) and 2.738 ± 0.021 (treatment: MLN4924 1 uM, 8 h).
The like results for KFDHIEVRDGPFGFSPIIGRFCGQ [NETO1] were, in that order, 2.3 ± 0.28 and 2.44 ± 0.34.
The like results for KHGKRKRGRPRKLSKEYWDCLEGK [ELF3] were, in that order, 4.18 ± 0.44 and 4.38 ± 0.18.
The like results for KHPQPAPAVTPDPWGVQGGQESEV [PKD2L1] were, in that order, 5.24 ± 0.22 and 4.97 ± 0.21.
For the sequence KHSTFGQSLTQRLHALKLRSPDAS [GNAS], the protein stability index runs as follows: (treatment: DMSO) 3.37 ± 0.29; (treatment: MLN4924 1 uM, 8 h) 3.44 ± 0.2.
The like results for KKEKIIEDKTFGLKNKKGAKQQKF [ZC3H15] were, in that order, 4.5 ± 0.27 and 4.33 ± 0.19.
In turn, KKINSNQLENEQSQENSINPIQKE [SPANXN3] displayed a protein stability index (treatment: DMSO) of 5.66 ± 0.29 and a protein stability index (treatment: MLN4924 1 uM, 8 h) of 5.58 ± 0.26.
Taken in the same sequence, the figures for KKLEKYLQKLSALLMTADILAETG [ELOA2] were 2.74 ± 0.79 and 2.6 ± 0.055.
Regarding KKTMSTFHNLVSLNLNYNCISDEL [FBXO39], the protein stability index is, setting by setting: (treatment: DMSO) 2.09 ± 0.21; (treatment: MLN4924 1 uM, 8 h) 2.18 ± 0.22.
Taken in the same sequence, the figures for KLEEVVNKKHGEAEKKKPKTQIVC [ZC3H15] were 4.64 ± 0.18 and 4.63 ± 0.24.
Taken in the same sequence, the figures for KLEWAIDEDELRKSLSELVDDKFG [PSD2] were 4.19 ± 0.086 and 4.09 ± 0.26.
The like results for KLILGMPTYGRSFTLASSSDTRVG [CHIT1] were, in that order, 2.42 ± 0.36 and 2.46 ± 0.22.
For the sequence KLMKILQPQDVDLALDSGASLLHL [RIPK4], the protein stability index (treatment: DMSO) worked out at 2.11 ± 0.12 and the protein stability index (treatment: MLN4924 1 uM, 8 h) is 2.52 ± 0.21.
Turning to KLVRSPSGLRMVPEHRAFGSPFGL [ZFYVE21], the protein stability index (treatment: DMSO) was determined as 2.32 ± 0.076 and the protein stability index (treatment: MLN4924 1 uM, 8 h) is 2.28 ± 0.22.
With KMQQSKNQVVSSTNGELNTDDPTA [CSNK1G3], the protein stability index came to 5.37 ± 0.21 (treatment: DMSO) and 5.34 ± 0.13 (treatment: MLN4924 1 uM, 8 h).
With KNDSLRKRYDGLKYDVKKVEEVVY [TSN], the protein stability index (treatment: DMSO) is 3.18 ± 0.22 and the protein stability index (treatment: MLN4924 1 uM, 8 h) came to 3.32 ± 0.33.
With KNGEWGTVCDDKWDLVSASVVCRE [LOXL2], the protein stability index (treatment: DMSO) is 3.85 ± 0.63 and the protein stability index (treatment: MLN4924 1 uM, 8 h) stood at 3.8 ± 0.73.
Taken in the same sequence, the figures for KNHVGKPLLKMDLNSEQAEQLERI [FAM98B] were 4.8 ± 0.16 and 4.67 ± 0.19.
As to KNWRNFASKWGMSYDELCFLEQRP [EDARADD], the protein stability index (treatment: DMSO) came out at 2.06 ± 0.18 and the protein stability index (treatment: MLN4924 1 uM, 8 h) is 2.02 ± 0.23.
Taken in the same sequence, the figures for KPEEPPQNLLREKIMKLPLPESLK [PCMTD1] were 4.57 ± 0.43 and 4.76 ± 0.13.
Taken in the same sequence, the figures for KPKMYFMTMIVSLAAVAWVGQQVH [ARL6IP1] were 2.83 ± 0.48 and 3.28 ± 0.69.
Taken in the same sequence, the figures for KPYIAAHFDVLPTEFTLGDDKHYG [PTPRD] were 3.28 ± 0.49 and 3.44 ± 0.14.
On to KQLEFGLKEAPVQDQGYKTLRLRE [ZNF8], for which the protein stability index reads like this: (treatment: DMSO) 4.3 ± 0.31; (treatment: MLN4924 1 uM, 8 h) 4.27 ± 0.22.
For KQLEPLVAPLADGKVAVGQDDLTV [VPS39], the protein stability index (treatment: DMSO) stood at 5.14 ± 0.27 and the protein stability index (treatment: MLN4924 1 uM, 8 h) amounted to 5.18 ± 0.21.
